We go through one molecule from publication PMC3621763, “Adenoviral Gene Transfer of PLD1-D4 Enhances Insulin Sensitivity in Mice by Disrupting Phospholipase D1 Interaction with PED/PEA-15” (PLoS ONE, 2013).

In the experiment the target is T1, PED/PEA-15 over-expressed in transgenic Tg_(Ped/pea-15) mice (UniProt Q15121 1-130).
T1 construct: PED/PEA-15 expressed from the transgene of Tg_(Ped/pea-15) mice; The precipitate from transgenic muscle holds the transgene's product together with the endogenous mouse protein; source: transgenic mice with ubiquitous over-expression of Ped/pea-15, tibialis skeletal muscle lysate
T1 sequence (Q15121 whole entry): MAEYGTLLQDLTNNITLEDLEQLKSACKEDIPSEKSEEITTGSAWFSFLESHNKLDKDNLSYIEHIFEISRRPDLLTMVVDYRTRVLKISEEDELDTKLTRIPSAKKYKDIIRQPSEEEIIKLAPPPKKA
As to the kind of experiment: co-IP; tibialis skeletal muscle lysate (0.5-1 mg) of Wt and Tg_(Ped/pea-15) mice, precleared with pre-immune serum, anti-PED/PEA-15 antibody overnight at 4°C, protein A sepharose, blot with anti-PLD1. As to conditions: partners not purified.

B1: Phospholipase D1 (PLD1), endogenous in mouse skeletal muscle (enzyme, UniProt Q9Z280 1-1074, looked up)
chain: MSLKSETRVNTSTLQKIAADMSNLIENLDTRELHFEGEEVEYDASPGDPKAQEGCIPFSSIYNTQGFKEPNIQTYLSGCPIKAQVLEVERFTSTSRVPSINLYTIELTHGEFTWQVKRKFKHFQEFHRELLKYKAFIRIPIPTKRHTFRRQNVKEEPREMPSLPRSSENAIQEEQFFGRRKQLEDYLTKILKMPMYRNYHATTEFLDVSQLSFIHDLGPKGLEGMIMKRSGGHRIPGVNCCGHGRACYRWSKRWLIVKDSFLLYMKPDSGAIAFVLLVDKEFRVKVGRKETETKYGLRIDNLSRTLILKCNSYRHARWWGGAIEEFIRKHGADFLKDHRFGSYAALHENTLAKWYVNAKGYFEDIANAMEEASEEIFITDWWLSPEIFLKRPVVEGNRWRLDCILKRKAQQGVRIFIMLYKEVELALGINSEYSKRTLMRLHPNIKVMRHPDHVSSSVYLWAHHEKLVIIDQSVAFVGGIDLAYGRWDDNEHRLTDVGSVKRVTSGLSLGSLTAASVESMESLSLKDKHEFHKKEPISKIVDETDMKLKGIGKSRKFSKFSLYRQLHRHHLHNADSISSIDSTSSYFSHCRSHQNLIHGLKPHLKLFHPSSESEQGLTRHSTDTGSIRSVQTGVGELHGETRFWHGKDYCNFVFKDWVQLDKPFADFIDRYSTPRMPWHDIGSVVHGKAARDVARHFIQRWNFTKIMKPKYRSLSYPFLLPKSQATAHELRYQVPGAVPAKVQLLRSAADWSAGIKHHEESIHAAYIHVIENSKHYIYIENQFFISCADDKVVFNKVGDRIAQRILKAHREGQRYRVYIVIPLLPGFEGDISTGGGNALQAIMHFNYRTMCRGESSILEQLKPELGNKWINYISFCGLRTHAELEGNLVTELIYVHSKLLIADDNTVIIGSANINDRSMLGKRDSEMAVIVQDTETVPSVMDGKEYQAGRFARDLRLECFRLVLGYLSDPSEDLQDPVSDKFFKEIWVSTAARNATIYDKVFRCLPNDEVHNLIQLRDFINKPILAKEDALRAEEELRKIRGFLVQFPLYFLSEENLLPSVGTKEAIVPMEVWT
notes: Phospholipase D1, endogenous protein of mouse skeletal muscle; Detected by blot with an anti-PLD1 antibody in the anti-PED/PEA-15 precipitate; source: endogenous, tibialis skeletal muscle lysate of Wt and Tg_(Ped/pea-15) mice
Consider B1, for which the “fold increase of the co-precipitated interaction against Wt mice” value is 4 fold.
